# From patent publication US20240000839A1 (CELLULAR BIOMEDICINE GROUP HK, published 2024)
# T1: TNFRSF17 (Q02223), i.e., BCMA (UniProt Q02223 1-184)
# T1 construct: whole, on cells; also called B cell maturation antigen; CD269
# T1 sequence (looked up): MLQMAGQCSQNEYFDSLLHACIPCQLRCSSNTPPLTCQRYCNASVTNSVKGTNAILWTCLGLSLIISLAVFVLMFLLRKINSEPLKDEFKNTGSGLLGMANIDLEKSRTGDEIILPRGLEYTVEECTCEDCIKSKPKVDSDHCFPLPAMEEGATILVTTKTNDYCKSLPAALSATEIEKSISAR
# B1: B20-scFv-rabFc (Fc fusion)
# scFv: DIQMTQSPSSLSASVGDRVTITCRASQGISNYLNWYQQKPGKAPKPLIYYTSNLQSGVPSRFSGSGSGTDYTLTISSLQPEDFATYYCMGQTISSYTFGQGTKLEIKGGGGSGGGGSGGGGSEVQLVESGGGLVQPGGSLRLSCAASGFTFSNFDMAWVRQAPGKGLVWVSSITTGADHAIYADSVKGRFTISRDNAKNTLYLQMNSLRAEDTAVYYCVRHGYYDGYHLFDYWGQGTLVTVSS
# notes: not shown: rabbit Fc (rabFc)
# Target: T1, TNFRSF17 (Q02223), i.e., BCMA
# Assay: flow cytometry, HEK293T membrane protein array, 20 ug/mL
# Protocol: The light chain variable region of SEQ ID NO: 1 and the heavy chain variable region of SEQ ID NO: 2 were used to prepare a single chain antibody B20-scFv-rabFc, and membrane protein array experiment was performed.
# 20 ug/mL of B20-scFv-rabFc was added to HEK293T cell array transiently transfected with 5344 membrane proteins, respectively.
binder,measurement,value
B1,binding result,binds
